This note sets out measurements from patent US20140363428A1 (Chugai, published 2014).

B1: IgG1-F1125 (antibody)
heavy: QVQLQESGPGLVKPSETLSLTCAVSGHSISHDHAWSWVRQPPGEGLEWIGFISYSGITNYNPSLQGRVTISRDNSKNTLYLQMNSLRAEDTAVYYCARSLARTTAMDYWGEGTLVTVSSASTKGPSVFPLAPSSKSTSGGTAALGCLVKDYFPEPVTVSWNSGALTSGVHTFPAVLQSSGLYSLSSVVTVPSSSLGTQTYICNVNHKPSNTKVDKKVEPKSCDKTHTCPPCPAPELLGGPSVFLFPPKPKDTLYISRTPEVTCVVVDVSHEDPEVKFNWYVDGVEVHNAKTKPREEQYNSTYRVVSVLQVLHQDWLNGKEYKCKVSNKALPAPIEKTISKAKGQPREPQVYTLPPSRDELTKNQVSLTCLVKGFYPSDIAVEWESNGQPENNYKTTPPVLDSDGSFFLYSKLTVDKSRWQQGNVFSCSVMHEALHYHVTQKSLSLSP
light: not shown
notes: VH3-IgG1 with Fc substitutions (EU numbering) + L(WT)-CK
B2: IgG1-F1110 (antibody)
heavy: B1 heavy with Q309T, V424Q
light: not shown
notes: as for B1
B3: IgG1-F1070 (antibody)
heavy: B1 heavy with Q309T, Q440R
light: not shown
notes: as for B1
B4: IgG1-F1072 (antibody)
heavy: B1 heavy with Q309T, S442E
light: not shown
notes: as for B1
B5: IgG1-F1069 (antibody)
heavy: B1 heavy with Q309T, Q440E
light: not shown
notes: as for B1
B6: IgG1-F1120 (antibody)
heavy: B1 heavy with T252V, V310P, Q313A, S426R
light: not shown
notes: as for B1
B7: IgG1-F1096 (antibody)
heavy: B1 heavy with Q309T, Q388T, V438Y
light: not shown
notes: as for B1
B8: IgG1-F1076 (antibody)
heavy: B1 heavy with S241D, Q309T, K328D, L330Y
light: not shown
notes: as for B1
B9: IgG1-F1077 (antibody)
heavy: B1 heavy with K250N, Q309T, V438Y
light: not shown
notes: as for B1
B10: IgG1-F1063 (antibody)
heavy: B1 heavy with Q309T, P389S
light: not shown
notes: as for B1
B11: IgG1-F1103 (antibody)
heavy: B1 heavy with S241D, Q313A, K328D, L330Y, V438Y
light: not shown
notes: as for B1
B12: IgG1-F1112 (antibody)
heavy: B1 heavy with Q309T, Q440K
light: not shown
notes: as for B1
B13: IgG1-F1083 (antibody)
heavy: B1 heavy with Q309T, V438Y, S442N
light: not shown
notes: as for B1
B14: IgG1-F1099 (antibody)
heavy: B1 heavy with Q309T, K328D, L330Y, V438Y
light: not shown
notes: as for B1
B15: IgG1-F1123 (antibody)
heavy: B1 heavy with T252V, V310P, Q313A, S442E
light: not shown
notes: as for B1
B16: IgG1-F1100 (antibody)
heavy: B1 heavy with S241D, Q309T, K328D, L330Y, V438Y
light: not shown
notes: as for B1
B17: IgG1-F1105 (antibody)
heavy: B1 heavy with Q309T, V424S, S426R
light: not shown
notes: as for B1
B18: IgG1-F1064 (antibody)
heavy: B1 heavy with Q309T, V424E
light: not shown
notes: as for B1
B19: IgG1-F1101 (antibody)
heavy: B1 heavy with S241D, Q313A, V438Y
light: not shown
notes: as for B1
B20: IgG1-F1111 (antibody)
heavy: B1 heavy with Q309T, S426K
light: not shown
notes: as for B1
B21: IgG1-F1098 (antibody)
heavy: B1 heavy with S241D, Q309T, V438Y
light: not shown
notes: as for B1
B22: IgG1-F1106 (antibody)
heavy: B1 heavy with Q309T, Q440R, S442E
light: not shown
notes: as for B1
B23: IgG1-F1061 (antibody)
heavy: B1 heavy with Q309T, P389E
light: not shown
notes: as for B1
B24: IgG1-F1095 (antibody)
heavy: B1 heavy with Q309T, S385N, G387S, V438Y
light: not shown
notes: as for B1
B25: IgG1-F1122 (antibody)
heavy: B1 heavy with T252V, V310P, Q313A, Q440R
light: not shown
notes: as for B1
B26: IgG1-F1104 (antibody)
heavy: B1 heavy with Q309T, V424E, S426R
light: not shown
notes: as for B1
B27: IgG1-F1079 (antibody)
heavy: B1 heavy with Q309T, E384N, N386S, V438Y
light: not shown
notes: as for B1
B28: IgG1-F1113 (antibody)
heavy: B1 heavy with Q309T, S442D
light: not shown
notes: as for B1
B29: IgG1-F1119 (antibody)
heavy: B1 heavy with T252V, V310P, Q313A, V424E
light: not shown
notes: as for B1
B30: IgG1-F1114 (antibody)
heavy: B1 heavy with Q309T, S442Q
light: not shown
notes: as for B1
B31: IgG1-F1067 (antibody)
heavy: B1 heavy with Q309T, S426E
light: not shown
notes: as for B1
B32: IgG1-F1058 (antibody)
heavy: B1 heavy with Q309T, Q388E
light: not shown
notes: as for B1
B33: IgG1-F1059 (antibody)
heavy: B1 heavy with Q309T, Q388R
light: not shown
notes: as for B1
B34: IgG1-F1065 (antibody)
heavy: B1 heavy with Q309T, V424R
light: not shown
notes: as for B1
B35: IgG1-F1117 (antibody)
heavy: B1 heavy with T252V, Q313A, S426N
light: not shown
notes: as for B1
B36: IgG1-F1073 (antibody)
heavy: B1 heavy with Q309T, S442R
light: not shown
notes: as for B1
B37: IgG1-F1115 (antibody)
heavy: B1 heavy with Q309T, S426N
light: not shown
notes: as for B1
B38: IgG1-F1080 (antibody)
heavy: B1 heavy with Q309T, S426N, V438Y
light: not shown
notes: as for B1
B39: IgG1-F1082 (antibody)
heavy: B1 heavy with Q309T, V438Y, Q440N
light: not shown
notes: as for B1
B40: IgG1-F1097 (antibody)
heavy: B1 heavy with Q309T, G387N, P389S, V438Y
light: not shown
notes: as for B1
B41: IgG1-F1108 (antibody)
heavy: B1 heavy with Q309T, V424K
light: not shown
notes: as for B1
B42: IgG1-F1118 (antibody)
heavy: B1 heavy with T252V, V310P, Q313A, S426N
light: not shown
notes: as for B1
B43: IgG1-F1060 (antibody)
heavy: B1 heavy with Q309T, Q388S
light: not shown
notes: as for B1
B44: IgG1-F1107 (antibody)
heavy: B1 heavy with Q309T, V424D
light: not shown
notes: as for B1
B45: IgG1-F1068 (antibody)
heavy: B1 heavy with Q309T, S426R
light: not shown
notes: as for B1
B46: IgG1-F1102 (antibody)
heavy: B1 heavy with Q313A, K328D, L330Y, V438Y
light: not shown
notes: as for B1
B47: IgG1-F1066 (antibody)
heavy: B1 heavy with Q309T, V424S
light: not shown
notes: as for B1
B48: IgG1-F1071 (antibody)
heavy: B1 heavy with Q309T, Q440S
light: not shown
notes: as for B1
B49: IgG1-F1074 (antibody)
heavy: B1 heavy with S241D, Q309T
light: not shown
notes: as for B1
B50: IgG1-F1116 (antibody)
heavy: B1 heavy with Q313A, S426N, V438Y
light: not shown
notes: as for B1
B51: IgG1-F1121 (antibody)
heavy: B1 heavy with T252V, V310P, Q313A, V424E, S426R
light: not shown
notes: as for B1
B52: IgG1-F1109 (antibody)
heavy: B1 heavy with Q309T, V424T
light: not shown
notes: as for B1
B53: IgG1-F1352 (antibody)
heavy: B1 heavy with L237R, S241K, Q309T, H435D, V438T, Q440K, S442E
light: not shown
notes: EU numbering; copies: 2 + 2

Residue numbers refer to the chain shown, from its start.

By Kd is commonly meant the constant that tells how readily two partners part at equilibrium. Read a low Kd as tighter binding.

One test deals with T1, soluble human FcRn (heterodimer of FcRn alpha chain and beta2-microglobulin) (human, UniProt P55899 24-297; P61769 21-119).
T1 construct: Expressed in HEK293H and purified on IgG Sepharose; also called hFcRn
T1 sequence (P55899 24-297 limits assumed, chain 1 of 2): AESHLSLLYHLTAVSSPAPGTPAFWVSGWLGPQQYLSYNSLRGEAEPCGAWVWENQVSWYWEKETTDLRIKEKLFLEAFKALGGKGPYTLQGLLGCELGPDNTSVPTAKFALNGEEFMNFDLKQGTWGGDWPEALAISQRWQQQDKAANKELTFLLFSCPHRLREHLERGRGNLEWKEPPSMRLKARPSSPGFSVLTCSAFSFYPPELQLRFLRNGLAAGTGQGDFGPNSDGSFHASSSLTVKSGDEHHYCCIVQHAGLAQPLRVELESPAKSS
T1 sequence (P61769 21-119 limits assumed, chain 2 of 2): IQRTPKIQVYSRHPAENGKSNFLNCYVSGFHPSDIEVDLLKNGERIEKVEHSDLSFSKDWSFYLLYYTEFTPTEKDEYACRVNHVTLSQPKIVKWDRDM
The test is described as follows: SPR Biacore T100, antibody captured via protein L, hFcRn analyte, pH 7.0, 25 C. (In general: SPR reads the build-up and loss of mass on a sensor chip optically.)
B1 displayed a Kd of 52 nM.

B2 had a Kd of 130 nM.

B3 yielded a dissociation constant Kd of 170 nM.

In turn, B4 had a Kd of 130 nM.

Regarding B5, the Kd came to 140 nM.

Molecule B6 registered a Kd of 10 nM.

B7 registered a Kd of 270 nM.

Turning to B8, the Kd came to 130 nM. This Kd is about 2.1-fold lower than that of the molecule before.

In turn, B9 gave a Kd of 2000 nM. This Kd is about 15-fold higher than that of the molecule before.

The molecule B10 returned a Kd of 140 nM. Compared with the last molecule, the Kd is about 14-fold lower.

Molecule B11 came in with a Kd of 61 nM.

With B12, the Kd stood at 120 nM.

The molecule B13 registered a Kd of 350 nM.

B14 had a Kd of 260 nM.

With B15, binding was characterised by a dissociation constant (Kd) of 9.5 nM.

In turn, B16 had a Kd of 240 nM.

In turn, B17 yielded a Kd of 150 nM.

B18 displayed a Kd of 130 nM.

The molecule B19 displayed a Kd of 66 nM.

Take B20: the Kd came out at 160 nM.

Consider B21, for which the Kd was determined as 260 nM.

Molecule B22 registered a dissociation constant Kd of 140 nM.

The molecule B23 returned a Kd of 120 nM.

B24 showed a Kd of 290 nM.

The molecule B25 showed a dissociation constant Kd of 14 nM. This Kd is about 21-fold lower than that of the molecule before.

Molecule B26 came in with a Kd of 180 nM.

Take B27: the affinity, expressed as Kd, was 340 nM. This Kd is about 1.9-fold higher than that of the molecule before.

Take B28: the Kd stood at 120 nM. This Kd is about 2.8-fold lower than that of the molecule before.

On to B29, for which the Kd was 10 nM.

For the molecule B30, the Kd came to 130 nM.

B31 gave a Kd of 130 nM.

The molecule B32 displayed a Kd of 130 nM.

B33 had a Kd of 140 nM.

B34 returned a Kd of 140 nM.

Molecule B35 returned a Kd of 49 nM. Compared with the last molecule, the Kd is about 2.9-fold lower.

B36 returned a dissociation constant Kd of 130 nM.

In turn, B37 yielded a Kd of 130 nM.

Turning to B38, binding was put at a Kd of 320 nM. Against the preceding molecule, the Kd is about 2.5-fold higher.

In the case of B39, the Kd was determined as 280 nM.

The molecule B40 had a Kd of 280 nM. In other words, the sub-micromolar range.

Take B41: the Kd came out at 130 nM.

B42 had a Kd of 13 nM.

Molecule B43 gave a Kd of 140 nM.

Turning to B44, the Kd is 120 nM.

The molecule B45 yielded a Kd of 170 nM.

On to B46, for which the Kd turned out to be 65 nM.

On to B47, for which the Kd worked out at 140 nM.

B48: binding was characterised by a dissociation constant (Kd) of 120 nM.

As to B49, the Kd amounted to 130 nM.

With B50, the Kd was 74 nM.

The molecule B51 gave a Kd of 10 nM.

B52 showed a Kd of 130 nM.

In another test the target is T2, soluble human FcRn (human, UniProt P55899 24-297; P61769 21-119).
T2 construct: Heterodimer of FcRn alpha chain and beta2-microglobulin; also called hFcRn
T2 sequence (P55899 24-297 limits assumed, chain 1 of 2): as the sequence (P55899 24-297 limits assumed, chain 1 of 2) above
T2 sequence (P61769 21-119 limits assumed, chain 2 of 2): as the sequence (P61769 21-119 limits assumed, chain 2 of 2) above
The test is described as follows: SPR (Biacore T100), antibody captured by protein L, hFcRn as analyte, pH 7.0, 25 C.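 Also: KD calculated from fitted association and dissociation rate constants of the sensorgrams, protein L amine-coupled to the sensor chip, sodium phosphate running buffer with NaCl and Tween20.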
Description: An appropriate amount of protein L (ACTIGEN) was immobilized onto Sensor chip CM4 (GE Healthcare) by the amino coupling method, and the chip was allowed to capture an antibody of interest. Then, diluted FcRn solutions and running buffer (as a reference solution) were injected to allow human FcRn to interact with the antibody captured on the sensor chip. The running buffer used comprised 50 mmol/l sodium phosphate, 150 mmol/l NaCl, and 0.05% (w/v) Tween20 (pH 7.0). FcRn was diluted using each buffer. The chip was regenerated using 10 mmol/l glycine-HCl (pH 1.5). Assays were carried out exclusively at 25 degrees C. The association rate constant ka (1/Ms) and dissociation rate constant kd (1/s), both of which are kinetic parameters, were calculated based on the sensorgrams obtained in the assays, and KD (M) of each antibody for human FcRn was determined from these values. Each parameter was calculated using Biacore T100 Evaluation Software (GE Healthcare).
As for B53, the Kd came out at 390 nM. This lies in the sub-micromolar range.
